# Results taken from paper PMC4102243, “Rett-causing mutations reveal two domains critical for MeCP2 function and for toxicity in MECP2 duplication syndrome mice”.
# B1: 64-bp EMSA probe (dsDNA)
# DNA 1: GGACTCCAGGTCCAGGACCGCGTTTTTCGCGCGCACGGCGCGGGAGGTCCAGCTGTCCACCTCC
# DNA 2: GGAGGTGGACAGCTGGACCTCCCGCGCCGTGCGCGCGAAAAACGCGGTCCTGGACCTGGAGTCC
# Biological target: MeCP2 C-terminal fragment WT (human, UniProt P51608 274-340)
# Experiment: EMSA; 10 mM Tris-HCl pH 7.4, 50 mM KCl, 0.5 mM MgCl2, 0.1 mM EDTA, 5% glycerol, 0.1 mg/ml BSA, 66.7 nM probe, room temperature 30 min; 1% agarose gel, 1X TAE, 4 C
# Conditions: protein: recombinant; tags: N-terminal GST (pGEX-5x3); label: none (ethidium bromide post-stain); blunt
# Sequence of MeCP2 C-terminal fragment WT (P51608 274-340): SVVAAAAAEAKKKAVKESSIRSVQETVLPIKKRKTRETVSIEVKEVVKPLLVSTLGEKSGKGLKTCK
binder,measurement,value
B1,binding result,binds
